We go through 1 molecule from PMC7054686, “A revised model of TRAIL‐R2 DISC assembly explains how FLIP(L) can inhibit or promote apoptosis” (EMBO Reports, 2020).

The experiment addresses recombinant FLIP DED1/2 (amino acids 1–184) with a C‐terminal His‐tag (UniProt O15519 1-184). Briefly: AlphaScreen or HTRF; cell-free AlphaScreen: FLIP DED1/2-His on nickel chelate acceptor beads, GST-FADD DED on glutathione donor beads; 25 mM Tris pH 7.5, 300 mM NaCl, 0.0007% Tween-20, 0.05% BSA; room temperature; 25 μl in 384-well plate. The following applies: both partners purified. Background: Alpha assays give light when donor and acceptor beads are brought close together.

B1: recombinant FADD DED (amino acids 1–90) with an N‐terminal GST‐tag (domain or fragment)
chain: MDPFLVLLHSVSSSLSSSELTELKFLCLGRVGKRKLERVQSGLDLFSMLLEQNDLEPGHTELLRELLASLRRHDLLRRVDDFEAGAAAGA
notes: FADD, death effector domain, amino acids 1-90; Held by glutathione donor beads in the AlphaScreen; source: recombinant; not shown: GST, N-terminal, kept
For B1, the binding result is “binds”.
